From patent US20260250371A1 (ULTRAGENYX PHARMACEUTICAL, published 2026)
Substitutions are numbered along the chain they refer to. Numbers in names are those of the source. Where “and” joins values, the source holds several entries; their conditions need not be identical. Equal entries are not always repeated.

T1: recombinant human FGF23 (R179Q) (human, UniProt Q9GZV9 25-251)
T1 construct: also called rhFGF23(R179Q); hFGF23(R179Q)
T1 sequence (looked up): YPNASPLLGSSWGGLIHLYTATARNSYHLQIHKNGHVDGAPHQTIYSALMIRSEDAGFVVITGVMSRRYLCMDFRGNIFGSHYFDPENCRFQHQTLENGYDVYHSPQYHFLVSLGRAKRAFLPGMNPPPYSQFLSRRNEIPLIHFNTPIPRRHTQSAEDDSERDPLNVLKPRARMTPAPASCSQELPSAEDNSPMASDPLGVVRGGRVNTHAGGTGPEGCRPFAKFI

T2: cynomolgus monkey (Macaca fascicularis) FGF23 (R179Q) (cynomolgus monkey (Macaca fascicularis), UniProt Q9GZV9 25-251 (human entry), limits assumed)
T2 construct: also called cynoFGF23; cynoFGF23(R179Q)
T2 chain: T1 sequence (looked up) with D85N, Q92R, Q94W, Y108H, I149R, M195V, G219A, A224P

B1: UGX156 (antibody, human IgG1, kappa, V domains shown)
VH: QVQLVQSGAEVKKPGASVKVSCKASGYTFTNHYMHWVRQAPGQGLEWMGIINPFSGSTSNAQKFQGRVTMTRDTSTSTVYMELSSLRSEDTAVYYCARDIVDAFDFWGQGTMVTVSS
VL: AIQLTQSPSSLSASVGDRVTITCRASQGISSALVWYQQKPGKAPKLLIYDASSLESGVPSRFSGSGSGTDFTLTISSLQPEDFATYYCQQFNDYFTFGPGTKVDIKR
notes: also called HC:I54F; I54F
B2: UGX175 (antibody, human IgG1, kappa, V domains shown)
VH: B1 VH with F54I, A103S
VL: B1 VL
notes: also called HC:A103S; A103S
B3: UGX145 (antibody, human IgG1, kappa, V domains shown)
VH: B1 VH with F54I
VL: B1 VL with Y94E
notes: also called UGX042; LC:Y94E
B4: UGX139 (antibody, human IgG1, kappa, V domains shown)
VH: B1 VH with F54I
VL: B1 VL with N92Y
notes: also called UGX038; LC:N92Y
B5: UGX126 (antibody, human IgG1, kappa, V domains shown)
VH: B1 VH with F54I
VL: B1 VL with S52D
notes: also called LC:S52D; S52D
B6: UGX157 (antibody, human IgG1, kappa, V domains shown)
VH: B1 VH with F54Y
VL: B1 VL
notes: also called HC:I54Y; I54Y
B7: UGX201 (antibody, human IgG1, kappa, V domains shown)
VH: B1 VH with F54I, S59E
VL: B1 VL with N92F
notes: also called HC:S59E, LC:N92F; S59E/N92F
B8: UGX182 (antibody, human IgG1, kappa, V domains shown)
VH: B1 VH with F54I, S59D, V101I
VL: B1 VL
notes: also called HC:S59D, HC:V101I; S59D/V101I
B9: UGX166 (antibody, human IgG1, kappa, V domains shown)
VH: B1 VH with F54I, S59Y
VL: B1 VL
notes: also called UGX068; HC:S59Y
B10: UGX178 (antibody, human IgG1, kappa, V domains shown)
VH: B1 VH with N31F, F54I, S59F
VL: B1 VL
notes: also called HC:N31F, HC:S59F
B11: UGX190 (antibody, human IgG1, kappa, V domains shown)
VH: B1 VH with F54I, S59T, V101L
VL: B1 VL
notes: also called HC:S59T, HC:V101L
B12: UGX165 (antibody, human IgG1, kappa, V domains shown)
VH: B1 VH with F54I, S59V
VL: B1 VL
notes: also called HC:S59V
B13: UGX164 (antibody, human IgG1, kappa, V domains shown)
VH: B1 VH with F54I, S59T
VL: B1 VL
notes: also called HC:S59T
B14: UGX192 (antibody, human IgG1, kappa, V domains shown)
VH: B1 VH with N52F, F54I, V101I
VL: B1 VL
notes: also called HC:N52F, HC:V101I
B15: UGX188 (antibody, human IgG1, kappa, V domains shown)
VH: B1 VH with F54I, S57E, S59D
VL: B1 VL
notes: also called HC:S57E, HC:S59D
B16: Burosumab (antibody, human IgG1, kappa, V domains shown)
VH: B1 VH with F54I
VL: B1 VL
notes: Recombinant human IgG1 kappa; also called burosumab-twza; parental burosumab

target: T1, recombinant human FGF23 (R179Q); test: SPR, antibody captured on hIgG chip, human FGF23 analyte

KD ratio (variant antibody KD/burosumab KD) | Kd | Binder
2 | 10.5 pM | B1
3 | 7.72 pM | B2
2 | 13.3 pM | B3
1 | 16.4 pM | B4
2 | 12.4 pM | B5
3 | 7.58 pM | B6
4 | 5.17 pM | B7
2 | 9.47 pM | B8

target: T1, recombinant human FGF23 (R179Q); test: SPR, antibody captured on hIgG chip, rhFGF23(R179Q) analyte

Kd | Ratio (variant antibody KD/burosumab KD) | SA (surface activity) | koff | kon | Binder
0.0224 nM | 1 | 93.1% | 0.000196 s⁻¹ | 8.77e+06 M⁻¹ s⁻¹ | B9
0.00924 nM and 0.0105 nM | 2 | – | 9.77e-05 s⁻¹ and 6.25e-05 s⁻¹ | 1.06e+07 M⁻¹ s⁻¹ and 5.94e+06 M⁻¹ s⁻¹ | B1
0.00772 nM | 3 | 86.8% | 9.61e-05 s⁻¹ | 1.24e+07 M⁻¹ s⁻¹ | B2
0.0212 nM | 1 | 85.6% | 0.000134 s⁻¹ | 6.33e+06 M⁻¹ s⁻¹ | B10
3.08 nM | 0 | 92.7% | 0.0103 s⁻¹ | 3.35e+06 M⁻¹ s⁻¹ | B11
0.0363 nM and 0.0448 nM | – | – | 0.000175 s⁻¹ and 0.00022 s⁻¹ | 4.82e+06 M⁻¹ s⁻¹ and 4.92e+06 M⁻¹ s⁻¹ | B12
0.0138 nM and 0.0133 nM | – | – | 8.52e-05 s⁻¹ and 9.74e-05 s⁻¹ | 6.42e+06 M⁻¹ s⁻¹ and 7.07e+06 M⁻¹ s⁻¹ | B3
0.0164 nM | 1 | 86.2% | 0.000104 s⁻¹ | 6.32e+06 M⁻¹ s⁻¹ | B4
0.0124 nM | 2 | 86.5% | 0.00013 s⁻¹ | 1.05e+07 M⁻¹ s⁻¹ | B5
0.00758 nM | 3 | 89.1% | 0.000113 s⁻¹ | 1.49e+07 M⁻¹ s⁻¹ | B6
0.0336 nM | 1 | 91.9% | 0.00019 s⁻¹ | 5.64e+06 M⁻¹ s⁻¹ | B13
0.00452 nM and 0.00632 nM and 0.00517 nM | – | – | 3.65e-05 s⁻¹ and 6.31e-05 s⁻¹ and 5.81e-05 s⁻¹ | 8.08e+06 M⁻¹ s⁻¹ and 9.99e+06 M⁻¹ s⁻¹ and 1.12e+07 M⁻¹ s⁻¹ | B7
20.6 nM | 0 | 82.3% | 0.0236 s⁻¹ | 1.15e+06 M⁻¹ s⁻¹ | B14
0.00947 nM | 2 | 100% | 0.000141 s⁻¹ | 1.49e+07 M⁻¹ s⁻¹ | B8
0.0183 nM | 1 | 95.8% | 0.000253 s⁻¹ | 1.39e+07 M⁻¹ s⁻¹ | B15

target: T1, recombinant human FGF23 (R179Q); test: as above; remark: another data set of the same source

Kd | Ratio (variant antibody KD/burosumab KD) | SA (surface activity) | koff | kon | Binder
20.8 pM | 1 | 88.8% | 0.000157 s⁻¹ | 7.22e+06 M⁻¹ s⁻¹ | B16
10.5 pM | 2 | 106% | 6.25e-05 s⁻¹ | 5.94e+06 M⁻¹ s⁻¹ | B1
7.72 pM | 3 | 86.8% | 9.61e-05 s⁻¹ | 1.24e+07 M⁻¹ s⁻¹ | B2
13.3 pM | 2 | 87.4% | 8.52e-05 s⁻¹ | 6.42e+06 M⁻¹ s⁻¹ | B3
12.4 pM | 2 | 86.5% | 0.00013 s⁻¹ | 1.05e+07 M⁻¹ s⁻¹ | B5
7.58 pM | 3 | 89.1% | 0.000113 s⁻¹ | 1.49e+07 M⁻¹ s⁻¹ | B6
5.17 pM | 4 | 83.4% | 5.81e-05 s⁻¹ | 1.12e+07 M⁻¹ s⁻¹ | B7
9.47 pM | 2 | 100% | 0.000141 s⁻¹ | 1.49e+07 M⁻¹ s⁻¹ | B8

Target: T2, cynomolgus monkey (Macaca fascicularis) …
Test: SPR, antibody captured on hIgG chip, cynoFGF23(R179Q) analyte, single cycle kinetics
Method: Binding kinetics of 13 antibody variants shown in Table 19 were characterized against cynomolgus monkey (Macaca fascicularis) FGF23 (R179Q) (i.e., “cynoFGF23”) (SEQ ID NO: 372). Antibody variants were expressed at small scale (3 ml) and screened by SPR analysis at a single concentration (100 nM). Experimental setup of SPR analysis for CRC: SPR device—8K+; chip preparation—CM5 hIgG chip: channels—1-8; immobilization concentration—1.5 ug/ml; immobilization method—capture; flow rate—5 μl/min; contact time—60 s; running buffer—1×HBS-EP+pH 7.4; temperature—20° C.: flow rate—50 μl/min; association time—120 s; dissociation time—1800 s; antigen—cynoFGF23(R179Q): top concentration—0.1 μM, 9-pt 3-fold Single Cycle Kinetics.

KD ratio (variant antibody KD/burosumab KD) | Kd | Binder
6 | 0.00415 nM | B1
4 | 0.00617 nM | B2
2 | 0.0129 nM | B3
1 | 0.0162 nM | B4
2 | 0.0103 nM | B5
4 | 0.00573 nM | B6
2 | 0.0101 nM | B7
1 | 0.0163 nM | B8
